The values that follow come from PMC12284214, “Structural basis for the activity regulation of Medicago calcium channel CNGC15” (Cell Discovery, 2025).

The data set concerns the molecule itself. As to the kind of experiment: cryo-EM structure; MtCNGC15b alone, in 25 mM Tris pH 8.0, 150 mM NaCl, 0.006% GDN; 3.1 Å; also with 5 mM cGMP (no structural change).

B1: Medicago truncatula CNGC15b (natural protein, M. truncatula, UniProt G7JND3 1-620, looked up)
chain: MVTPKFMSDLFEGDHLELAKLTSPNGDNGIKFNEKHVAPRVLSRVFSEDYKRVKRRRRIFDPRGQTIHQWNKIFLVACLISLFVDPLFFYLPIVQDEVCIDIGIAVEVFLIIIRSIADVFYVIHIFMRFHTAYVAPSSRVFGRGELVIDSSKIASRYLHKGFFLDFIAALPLPQVLIWIVIPNLGGSTIANTKNVLRFIIIIQYLPRLFLIFPLSSQIVKATGVVTETAWAGAAYNLMLYMLASHVLGACWYLLSIERQEACWKSVCKLEESSCQFDFFDCNMVKDSLRVSWFVTSNVTNLCSPNSLFYQFGIYGDAVTSKVTTSAFFNKYFFCLWWGLRNLSSLGQGLLTSTFVGEIMFAIVIATLGLVLFALLIGNMQTYLQSTTVRLEEWRVKRTDTEQWMHHRQLPQELRQSVRKYDQYKWIATRGVDEESLLRGLPLDLRRDIKRHLCLELVRRVPLFDAMDERMLDAICERLKPALCTENTYLVREGDPVNEMLFIIRGNLDSYTTDGGRTGFFNSCRIGPGDFCGEELLTWALDPRPTMVIPSSTRTVKAISEVEAFALIAEDLKFVASQFRRLHSKQLRNKLRFHSHQWRTWAACFIQVAWRRTIQEKKGSC
notes: residues 58-385 were modelled in the apo map; In the functional rows the protein was made from cRNA in Xenopus oocytes with that signal peptide; also called MtCNGC15b; MtCNGC15; source: HEK293F, transfected; purified (anti-Flag M2, Strep-Tactin, SEC) in GDN; not shown: Flag, C-terminal, kept; TwinStrep, C-terminal, kept
In the case of B1, the binding result is recorded as “binds”.
